Patent publication US20230037815A1

Molecular target: cynomolgus CD19 (cynomolgus)
Test: Octet HTX (ForteBio), IgG on AHC sensor, 1:1 fit

Kd: 1.3 nM
koff: 0.000295 s⁻¹
B1: CNG-CD19-702 (antibody, V domains shown)
VH: QVQLQESGPGLVKPSQTLSLTCTVSGGSTSTSGMGVSWIRQHPGKGLEWIGHIWWDDDKRYNPVLKSRVTISVDTSKNQFSLKLSSVTAADTAVYYCARMELWSYYFDPWGQGTLVTVSS
VL: EIVLTQSPATLSLSPGERATLSCSASSSVSYMHWYQQKPGQAPRLLIYDTSKLASGIPARFSGSGSGTDFTLTISSLEPEDFAVYYCFQGSVYPFTFGQGTKLEIK
